# Measurements from PMC2839002 (Chromosoma, 2009).
# Experiments:
# His-T7-SmB′ = His-T7-SmB′ (UniProt P14678 1-240); assay: pull-down
# His-T7-SMN = His-T7-SMN (UniProt Q16637 1-294); assay: pull-down
# Chain of His-T7-SMN (Q16637 whole entry): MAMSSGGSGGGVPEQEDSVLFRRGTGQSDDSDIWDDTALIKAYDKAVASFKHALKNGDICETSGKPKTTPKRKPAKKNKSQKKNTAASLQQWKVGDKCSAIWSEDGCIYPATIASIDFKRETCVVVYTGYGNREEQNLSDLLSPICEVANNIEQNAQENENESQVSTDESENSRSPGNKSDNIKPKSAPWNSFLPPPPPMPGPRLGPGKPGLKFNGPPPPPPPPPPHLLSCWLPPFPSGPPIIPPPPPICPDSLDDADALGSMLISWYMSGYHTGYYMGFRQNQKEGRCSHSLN
binding result (His-T7-SmB′),binding result (His-T7-SMN),Binder
binds,binds,"GST-C214 C6D (domain or fragment, human, UniProt P38432 362-576, looked up) AGAAGWRRSGSNGGGQAPGASPSVSLPASLGRGWGREENLFSWKGAKGRGMRGRGRGRGHPVSCVVNRSTDNQRQQQLNDVVKNSSTIIQNPVETPKKDYSLLPLLAAAPQVGEKIAFKLLELTSSYSPDVSDYKEGRILSHNPETQQVDIEILSSLPALREPGKFDLVYHNENGAEVVEYAVTQESKITVFWKELIDPRLIIEDPDNEDDEEPA"
binds,binds,"GST-C214 DDE (domain or fragment, human, UniProt P38432 362-576, looked up) AGAAGWRRSGSNGGGQAPGASPSVSLPASLGRGWGREENLFSWKGAKGRGMRGRGRGRGHPVSCVVNRSTDNQRQQQLNDVVKNSSTIIQNPVETPKKDYSLLPLLAAAPQVGEKIAFKLLELTSSYSPDVSDYKEGRILSHNPETQQVDIEILSSLPALREPGKFDLVYHNENGAEVVEYAVTQESKITVFWKELIDPRLIIESPSNTDDEEPA"
binds,binds,"GST-C214 S489D + DDE (domain or fragment, human, UniProt P38432 362-576, looked up) AGAAGWRRSGSNGGGQAPGASPSVSLPASLGRGWGREENLFSWKGAKGRGMRGRGRGRGHPVSCVVNRSTDNQRQQQLNDVVKNSSTIIQNPVETPKKDYSLLPLLAAAPQVGEKIAFKLLELTSSYDPDVSDYKEGRILSHNPETQQVDIEILSSLPALREPGKFDLVYHNENGAEVVEYAVTQESKITVFWKELIDPRLIIESPSNTDDEEPA"
binds,,GST-coilin DDE (natural protein) MAASETVRLRLQFDYPPPATPHCTAFWLLVDLNRCRVVTDLISLIRQRFGFSSGAFLGLYLEGGLLPPAESARLVRDNDCLRVKLEERGVAENSVVISNGDINLSLRKAKKRAFQLEEGEETEPDCKYSKKHWKSRENNNNNEKVLDLEPKAVTDQTVSKKNKRKNKATCGTVGDDNEEAKRKSPKKKEKCEYKKKAKNPKSPKVQAVKDWANQRCSSPKGSARNSLVKAKRKGSVSVCSKESPSSSSESESCDESISDGPSKVTLEARNSSEKLPTELSKEEPSTKNTTADKLAIKLGFSLTPSKGKTSGTTSSSSDSSAESDDQCLMSSSTPECAAGFLKTVGLFAGRGRPGPGLSSQTAGAAGWRRSGSNGGGQAPGASPSVSLPASLGRGWGREENLFSWKGAKGRGMRGRGRGRGHPVSCVVNRSTDNQRQQQLNDVVKNSSTIIQNPVETPKKDYSLLPLLAAAPQVGEKIAFKLLELTSSYSPDVSDYKEGRILSHNPETQQVDIEILSSLPALREPGKFDLVYHNENGAEVVEYAVTQESKITVFWKELIDPRLIIESPSNTDDEEPA
